Drawing on publication PMC9285634, this text covers stoichiometry N for one substance.

This assay addresses Pyruvate kinase M2 (PKM2), endogenous (human (endogenous in HeLa and HCT116)) (UniProt P14618). Put plainly: cross-linking; cell or tumor tissue lysate in PBS with 0.1% Triton X-100; 4 ug protein crosslinked with 0.025% glutaraldehyde for 2 min at 37 C, stopped with Tris-HCl pH 8.0 50 mM; SDS-PAGE and WB with anti-PKM2; cells with HITT overexpression or KD, HITT fragments, miR-106, FBP; HCT116 xenografts.

Sequence of Pyruvate kinase M2 (PKM2), endogenous, P14618 1-531 (enzyme; other documents disagree on this pair) (P14618 whole entry): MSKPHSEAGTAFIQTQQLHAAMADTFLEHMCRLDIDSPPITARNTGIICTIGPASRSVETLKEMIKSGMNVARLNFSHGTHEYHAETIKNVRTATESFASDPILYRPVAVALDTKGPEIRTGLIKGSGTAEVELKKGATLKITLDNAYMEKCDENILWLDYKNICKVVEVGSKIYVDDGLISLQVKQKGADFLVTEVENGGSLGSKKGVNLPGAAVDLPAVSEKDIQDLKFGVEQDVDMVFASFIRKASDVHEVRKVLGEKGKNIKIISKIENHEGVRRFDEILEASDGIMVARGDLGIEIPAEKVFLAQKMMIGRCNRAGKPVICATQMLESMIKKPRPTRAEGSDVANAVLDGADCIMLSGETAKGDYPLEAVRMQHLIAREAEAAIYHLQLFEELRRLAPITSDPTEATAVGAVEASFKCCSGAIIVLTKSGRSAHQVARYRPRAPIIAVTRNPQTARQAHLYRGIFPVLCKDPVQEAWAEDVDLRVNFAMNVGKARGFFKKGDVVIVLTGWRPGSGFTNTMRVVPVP

“Pyruvate kinase M2 (PKM2), endogenous, P14618 1-531 (enzyme; other documents disagree on this pair)”: the stoichiometry N worked out at 2.
